Read-outs that look alike come from different tables or passages of the source. One block for each molecule: values may come before it.
What was measured:
[1] = target: T1, PBX1_(1-430), wild-type recombinant (human, UniProt P40424 1-430); assay: time-resolved fluorescence immunoassay (TR-FIA); plate coated with monoclonal anti-PBX1; PBX1 pre-incubated with PREP1 or MEIS1 for 1 h on ice, 10 µg/mL in 1% BSA PBS, 1 h at room temperature on the plate; detected with anti-PREP1 or biotinylated anti-MEIS1/2 and Eu^3+ conjugates; normalised to the wild-type protein taken as 1
T1 construct: also called wild-type PBX1; purified recombinant human PBX1; source: E. coli, purified
T1 sequence (looked up): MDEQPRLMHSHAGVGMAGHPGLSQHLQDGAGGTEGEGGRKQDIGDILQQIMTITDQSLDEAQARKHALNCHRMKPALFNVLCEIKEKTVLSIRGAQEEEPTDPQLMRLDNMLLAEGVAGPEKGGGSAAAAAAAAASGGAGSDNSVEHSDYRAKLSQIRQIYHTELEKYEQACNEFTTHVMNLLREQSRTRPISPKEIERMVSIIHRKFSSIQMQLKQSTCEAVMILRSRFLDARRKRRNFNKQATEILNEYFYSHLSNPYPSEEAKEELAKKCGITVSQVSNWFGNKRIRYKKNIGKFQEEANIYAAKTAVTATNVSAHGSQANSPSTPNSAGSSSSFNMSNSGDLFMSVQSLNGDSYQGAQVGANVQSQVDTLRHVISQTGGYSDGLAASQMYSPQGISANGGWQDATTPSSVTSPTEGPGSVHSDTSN

[2] = target: PBX1Δ197-204 (human) (UniProt P40424); assay: as above
[3] = target: T2, PBX1Δ43-55 (human, UniProt P40424 1-430, Δ43-55); assay: as above; conditions: both partners purified
T2 construct: PBX1, residues 1-430, with an internal deletion; source: E. coli, purified
T2 sequence (looked up): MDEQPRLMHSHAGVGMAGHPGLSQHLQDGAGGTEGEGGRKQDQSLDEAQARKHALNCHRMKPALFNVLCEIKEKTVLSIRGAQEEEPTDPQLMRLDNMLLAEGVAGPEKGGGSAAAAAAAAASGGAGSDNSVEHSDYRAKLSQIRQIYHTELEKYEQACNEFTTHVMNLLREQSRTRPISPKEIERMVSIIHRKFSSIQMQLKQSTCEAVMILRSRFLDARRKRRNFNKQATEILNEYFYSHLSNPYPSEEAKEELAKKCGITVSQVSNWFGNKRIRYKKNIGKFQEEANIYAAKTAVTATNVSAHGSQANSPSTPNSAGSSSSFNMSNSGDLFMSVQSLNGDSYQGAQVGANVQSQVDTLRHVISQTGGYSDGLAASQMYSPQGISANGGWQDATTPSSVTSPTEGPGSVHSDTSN

[4] = target: T3, PBX1 Δ77-84 (human, UniProt P40424 1-430, Δ77−84); assay: as above; conditions: both partners purified
T3 construct: PBX1, residues 1-430, with an internal deletion; source: E. coli, purified
T3 sequence (looked up): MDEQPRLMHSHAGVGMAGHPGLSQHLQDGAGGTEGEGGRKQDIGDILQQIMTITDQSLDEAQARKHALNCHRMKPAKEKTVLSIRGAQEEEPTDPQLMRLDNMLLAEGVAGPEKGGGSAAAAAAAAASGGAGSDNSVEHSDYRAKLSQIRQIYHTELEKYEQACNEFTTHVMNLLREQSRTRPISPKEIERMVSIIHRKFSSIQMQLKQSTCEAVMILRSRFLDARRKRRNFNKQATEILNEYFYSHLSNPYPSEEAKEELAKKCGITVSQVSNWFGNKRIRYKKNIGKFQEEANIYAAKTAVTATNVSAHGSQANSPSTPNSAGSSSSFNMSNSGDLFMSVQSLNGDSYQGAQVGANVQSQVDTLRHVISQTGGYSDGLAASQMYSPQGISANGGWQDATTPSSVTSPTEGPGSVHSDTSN

[5] = target: T4, PBX1 Δ105-113 (human, UniProt P40424 1-430, Δ105-113); assay: as above; conditions: both partners purified
T4 construct: PBX1, residues 1-430, with an internal deletion; source: E. coli, purified
T4 sequence (looked up): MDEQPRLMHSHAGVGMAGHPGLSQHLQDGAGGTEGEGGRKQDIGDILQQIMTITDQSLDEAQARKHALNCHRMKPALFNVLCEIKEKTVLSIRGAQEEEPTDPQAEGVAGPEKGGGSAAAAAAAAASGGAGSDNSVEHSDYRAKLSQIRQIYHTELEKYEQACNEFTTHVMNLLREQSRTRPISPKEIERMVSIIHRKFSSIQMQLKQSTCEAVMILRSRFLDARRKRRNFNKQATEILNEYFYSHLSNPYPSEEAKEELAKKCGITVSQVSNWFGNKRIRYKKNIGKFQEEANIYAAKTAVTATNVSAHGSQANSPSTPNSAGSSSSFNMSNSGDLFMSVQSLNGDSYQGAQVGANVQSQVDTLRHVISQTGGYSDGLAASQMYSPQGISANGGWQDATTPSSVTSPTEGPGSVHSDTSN

[6] = target: T1, PBX1_(1-430), wild-type recombinant; assay: ELISA; PBX1 wild-type coated at 0.1 µM in 100 mM Tris–HCl pH 7.5; GST-fused proteins at 0.23 nM to 0.5 µM, 1 h at 37 °C; anti-GST detection; GST signal subtracted; one-site binding model; conditions: both partners purified
[7] = target: T5, PREP1_(1-344) (UniProt P55347 1-344); assay: cross-linking; purified complex at 1 mg/ml in 50 mM borate-buffered saline, 1 mM BS^3, 1 h at room temperature; SDS-PAGE, in-gel Glu-C and trypsin digestion, nLC-ESI-MS/MS, pLink 2; two biological replicates; conditions: both partners purified
T5 construct: PREP1 (PKNOX1), residues 1-344, lacking the C-terminal region; Second cassette of the di-cistronic vector pGEX-6P-2RBS; also called PKNOX1; C-terminal truncated PREP1; source: E. coli, co-expressed with PBX1(1-308), purified as a complex (cation exchange, SEC on Superose 6)
T5 sequence (looked up): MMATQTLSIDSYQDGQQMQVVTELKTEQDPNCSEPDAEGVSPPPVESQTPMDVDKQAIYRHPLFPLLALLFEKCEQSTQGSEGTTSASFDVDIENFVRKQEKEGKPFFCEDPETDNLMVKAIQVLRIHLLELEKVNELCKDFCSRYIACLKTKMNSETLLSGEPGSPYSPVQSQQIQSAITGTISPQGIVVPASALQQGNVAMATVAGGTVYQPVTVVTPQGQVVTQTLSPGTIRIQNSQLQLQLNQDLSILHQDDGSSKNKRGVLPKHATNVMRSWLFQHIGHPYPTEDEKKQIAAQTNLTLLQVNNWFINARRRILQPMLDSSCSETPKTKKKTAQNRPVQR

[8] = target: T6, full-length MEIS1 (MEIS1_(1-390)) in the purified MEIS1-PBX1 complex (UniProt O00470 1-390); assay: as above; conditions: both partners purified
T6 construct: MEIS1, full length, residues 1-390; source: E. coli, purified as a complex with PBX1(1-308)
T6 sequence (looked up): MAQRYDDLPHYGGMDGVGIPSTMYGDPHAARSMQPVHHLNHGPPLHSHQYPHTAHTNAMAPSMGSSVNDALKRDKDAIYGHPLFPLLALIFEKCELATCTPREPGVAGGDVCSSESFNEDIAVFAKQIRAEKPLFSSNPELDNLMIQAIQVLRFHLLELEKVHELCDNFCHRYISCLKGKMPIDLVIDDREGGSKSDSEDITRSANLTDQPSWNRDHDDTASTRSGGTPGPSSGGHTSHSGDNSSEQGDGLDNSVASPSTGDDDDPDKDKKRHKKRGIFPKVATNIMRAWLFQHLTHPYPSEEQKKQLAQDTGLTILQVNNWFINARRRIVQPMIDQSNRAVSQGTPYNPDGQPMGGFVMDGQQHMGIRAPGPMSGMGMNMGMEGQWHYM

Molecule: PREP1 HR2m (I122A/L125A/L129A/L132A), TR-FIA (from UniProt P55347 1-436) (natural protein)
binding relative to wild type [1]: 30%

B1: MEIS1_(1-390), wild-type recombinant (TR-FIA) (natural protein, UniProt O00470 1-390, looked up)
chain: MAQRYDDLPHYGGMDGVGIPSTMYGDPHAARSMQPVHHLNHGPPLHSHQYPHTAHTNAMAPSMGSSVNDALKRDKDAIYGHPLFPLLALIFEKCELATCTPREPGVAGGDVCSSESFNEDIAVFAKQIRAEKPLFSSNPELDNLMIQAIQVLRFHLLELEKVHELCDNFCHRYISCLKGKMPIDLVIDDREGGSKSDSEDITRSANLTDQPSWNRDHDDTASTRSGGTPGPSSGGHTSHSGDNSSEQGDGLDNSVASPSTGDDDDPDKDKKRHKKRGIFPKVATNIMRAWLFQHLTHPYPSEEQKKQLAQDTGLTILQVNNWFINARRRIVQPMIDQSNRAVSQGTPYNPDGQPMGGFVMDGQQHMGIRAPGPMSGMGMNMGMEGQWHYM
notes: MEIS1, full length, residues 1-390; also called wild-type MEIS1; source: E. coli, purified
binding relative to wild type [2]: 45% | binding relative to wild type [3]: 60% | binding relative to wild type [4]: 35% | binding result [5]: binds

B4: PBX1_(1-308) (domain or fragment, human, UniProt P40424 1-308, looked up)
chain: MDEQPRLMHSHAGVGMAGHPGLSQHLQDGAGGTEGEGGRKQDIGDILQQIMTITDQSLDEAQARKHALNCHRMKPALFNVLCEIKEKTVLSIRGAQEEEPTDPQLMRLDNMLLAEGVAGPEKGGGSAAAAAAAAASGGAGSDNSVEHSDYRAKLSQIRQIYHTELEKYEQACNEFTTHVMNLLREQSRTRPISPKEIERMVSIIHRKFSSIQMQLKQSTCEAVMILRSRFLDARRKRRNFNKQATEILNEYFYSHLSNPYPSEEAKEELAKKCGITVSQVSNWFGNKRIRYKKNIGKFQEEANIYAAK
notes: PBX1, residues 1-308, lacking the C-terminal region; First cassette of the di-cistronic vector pGEX-6P-2RBS, with PREP1 in the second; also called C-terminal truncated PBX1; source: E. coli, purified as a complex with PREP1(1-344) or with MEIS1 (ion exchange, SEC on Superose 6)
binding result [7]: binds | binding result [8]: binds

Other lines, results leading:

Kd [6]: 80 ± 17 nM
B2: GST-fused wild-type MEIS1 (natural protein, UniProt O00470 1-390, looked up)
chain: MAQRYDDLPHYGGMDGVGIPSTMYGDPHAARSMQPVHHLNHGPPLHSHQYPHTAHTNAMAPSMGSSVNDALKRDKDAIYGHPLFPLLALIFEKCELATCTPREPGVAGGDVCSSESFNEDIAVFAKQIRAEKPLFSSNPELDNLMIQAIQVLRFHLLELEKVHELCDNFCHRYISCLKGKMPIDLVIDDREGGSKSDSEDITRSANLTDQPSWNRDHDDTASTRSGGTPGPSSGGHTSHSGDNSSEQGDGLDNSVASPSTGDDDDPDKDKKRHKKRGIFPKVATNIMRAWLFQHLTHPYPSEEQKKQLAQDTGLTILQVNNWFINARRRIVQPMIDQSNRAVSQGTPYNPDGQPMGGFVMDGQQHMGIRAPGPMSGMGMNMGMEGQWHYM
notes: MEIS1, full length, residues 1-390; Detected through GST in the ELISA; source: E. coli, purified

binding relative to wild type ([1]; both partners purified): 40%
B3: PREP1 L132A (natural protein, UniProt P55347 1-436, looked up)
chain: MMATQTLSIDSYQDGQQMQVVTELKTEQDPNCSEPDAEGVSPPPVESQTPMDVDKQAIYRHPLFPLLALLFEKCEQSTQGSEGTTSASFDVDIENFVRKQEKEGKPFFCEDPETDNLMVKAIQVLRIHLLEAEKVNELCKDFCSRYIACLKTKMNSETLLSGEPGSPYSPVQSQQIQSAITGTISPQGIVVPASALQQGNVAMATVAGGTVYQPVTVVTPQGQVVTQTLSPGTIRIQNSQLQLQLNQDLSILHQDDGSSKNKRGVLPKHATNVMRSWLFQHIGHPYPTEDEKKQIAAQTNLTLLQVNNWFINARRRILQPMLDSSCSETPKTKKKTAQNRPVQRFWPDSIASGVAQPPPSELTMSEGAVVTITTPVNMNVDSLQSLSSDGATLAVQQVMMAGQSEDESVDSTEEDAGALAPAHISGLVLENSDSLQ
notes: PREP1 (PKNOX1), residues 1-436
